{"source": "the nanobody polyreactivity screen of Harvey et al. (2022)", "data": [{"experiment": "yeast display, Sf9 membrane polyspecificity reagent, FACS + sequencing; frameworks hold sequencing errors", "summary_of_the_method": "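In a synthetic yeast display library (Saccharomyces cerevisiae BJ5465), nanobody expression was induced with galactose for 36–48 hours. FACS gates were set low and high (top ~1%) using anti-HA fluorescence for expression and streptavidin fluorescence for binding of the Sf9 membrane reagent. Each polyreactivity label is drawn from the gate of origin.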", "values": [{"sequence": "QVQLVESGGGLVQAGGSLRLSCAASGFIFVPNAMGWYRQAPGKERELVAAIRWSDGTTYYADSVKGRFTISRDNAKNTVYLQMNSLKPEDTAVYYCATDHDPRYDYWGQGTQVTVSS", "polyreactivity (PSR sort gate)": "high polyreactivity"}, {"sequence": "QVQLVESGGGLVQAGGSLRLSCAASGFTFSHYAMGWYRQAPGKERELVAAISWGGGSTYYADSVKGRFTISRDNAKNTVYLQMNSLKPEDTAVYYCARDVVYRGYYYGAFVYWGQGTQVTVSS", "polyreactivity (PSR sort gate)": "low polyreactivity"}, {"sequence": "QVQLVESGGGLVQAGGSLRLSCAASGRTIVRYAMGWYRQAPGKERDLVAAITARGGSTYYADSVKGRFTISRDNAKNTVYLQMNRLKPEDTEVYYCATYYSGSLGRYYYWGKGTQVTVSS", "polyreactivity (PSR sort gate)": "high polyreactivity"}, {"sequence": "QVELVESGGGLVQAGGSLRLSCAASGCIFTFYAMGWYRTAPGKARELVAAISSSGTSTYYADSVKGRFTISRDNAKNTVYLQMNSLKPEDTAVYYCAAGTAYSRYGYWGQGTQVTVSS", "polyreactivity (PSR sort gate)": "high polyreactivity"}, {"sequence": "QVHLVESGGGLLQAGGILSLSCAASGITIIVYVMGWYRQAPGKERELVATITYDDSTYADSVKGRFTISRDNAKNTVYFQMNSLKPEDTAVYYDYWGQGTQVTVSS", "polyreactivity (PSR sort gate)": "low polyreactivity"}, {"sequence": "QVQLVESGAGLVQAGGSLRLSCDASGRTVNIYAMGWYRQAPGKERELVADISYSDGSTDYADSVKGRFTISRDNAKNTVYLQMNSLKPEDTAVYYCAAYYYYYYGFGQRYYSWGQGTQVTVSS", "polyreactivity (PSR sort gate)": "low polyreactivity"}, {"sequence": "QVQLVESGGGLVQAGGSLRLSCAASGRIFGFYAMGWYRQAPGKERELVAAISSRGGRTYYADSVKGRFTISRDNAKNTVYLQMNSLKPEDTAVYYCAAGDGKYGRDGDYWGQGTQVTVSS", "polyreactivity (PSR sort gate)": "high polyreactivity"}, {"sequence": "QVQLVESGGGLVQAGGSLRLSCADSGRIFDFNAMGWYRQAPGKERELVASIDWSGGNTYYADSVKGRFTISRDNAKNTVYVQMNSLKPEDTAVYYCNRDFWGVWEYDYWGQGTQVTVSS", "polyreactivity (PSR sort gate)": "low polyreactivity"}, {"sequence": "QVQLVESGGGLVQAGGSLRLSCAASGHIFFYYTMGWYRQAPGKERELVAGITIGGSTNYADSVKGRFTISRDNAKNTVYLQMNSVKPEDTAVYYCKVVKYVDIYSYWEYYYWGQGTQVTVSS", "polyreactivity (PSR sort gate)": "low polyreactivity"}, {"sequence": "QVQLVESGGGLVQAGGSLRLSCAASGRTFYIYAMGWYRQAPGKERALDAAITYGGGRTFYADSVKGRFTISRDNAKNTVYLQMNSLKPEDTAVYYCAATVRGKRSTYDYWGQGTQVTVSS", "polyreactivity (PSR sort gate)": "high polyreactivity"}, {"sequence": "QVQLVESGGGLVQAGGSLRLSCAASGRIFDIYAMGWYRQAPGKERELVAAITTRGGSTYYADSVKGRFTISRDNAKNNVYLQMNSLKPEDTAVYYCAAAYSEDYRVIFYYWGQGTQVTVSS", "polyreactivity (PSR sort gate)": "low polyreactivity"}, {"sequence": "QVQLVESGGGLVQAGGSLRLSCAASGSTFYSNAMGWDRQAPGKERELVASISWSSGSTYYADSVKGRFTISRDNAKNTVYLQMNSLKPEDTAVYYCATDAGGPYRFGYWGQGTQVTVSS", "polyreactivity (PSR sort gate)": "low polyreactivity"}, {"sequence": "QVQLVESGGGLVQAGGSLRLSCASSVRTLAYNSRGCYRQATGKERELVASITSGGSTNYADSVKGRFTISRDNAKNTVYLQMNSLKPEDTAVYYCNKDGKYHRVLYDYWGQGTQVTVSS", "polyreactivity (PSR sort gate)": "low polyreactivity"}, {"sequence": "HVQLVETGGGFVQAGVCLRLSCAASGSIFRVYVMGWYRPATVKERELVAAISHSSGGTYYADSVKWRFTISRDNAKNTVYLQMYSLKPEDTAVYYCAARSRTRRGVHLQPSSRYGSWGQGTQVTVSS", "polyreactivity (PSR sort gate)": "high polyreactivity"}, {"sequence": "QDQLVESGGGLVQAGGSHRLSCAASGRNFNYNAMGWYRQAPGKERELVAAISGSGGRTYYADSVKGRFTISRDNAKNTVYLQMNSLKPEDTAVYYCAAAGYDSNGRYWGQGTLVTVSS", "polyreactivity (PSR sort gate)": "high polyreactivity"}, {"sequence": "QVQLVESGGGLVQAGASLRLSCAASGLIFVSNAMGWYRQAPGKERELVAAISWSGSRTYYADSVKGRFTISRDNAKINVYLHMTSLKPEDTAVFYCNAVRRGLPVVGAYDYWGQGTQVTVSS", "polyreactivity (PSR sort gate)": "high polyreactivity"}, {"sequence": "QVQLVESGGALVQAGGSLRLSCAASGRTFGLTAMGWYRQAPGKERELVAAITWSDDDTYYADSVKARFTNSRDNAKNTVYLQMNSLKPEDTAVYYCAATYPYRQYDYWGQGTQVTVSS", "polyreactivity (PSR sort gate)": "low polyreactivity"}, {"sequence": "QVQLVESGGGLVQAGGSLRLSCAASGRTFASYAMGWYRQAPGKERQLVAAITRGGNTNYADSVKGRFTISRDNAKNTVYLQMNSLNPEDTAVYYCATEGFVYSWLWEFEYWGQGTQVTVSS", "polyreactivity (PSR sort gate)": "low polyreactivity"}, {"sequence": "QVQLVESGGGLVQAGGSLRLSCAASGSIFISNAMGWYRQAPGKERELVAAITSSGGSTYYADSVKGRFTISRDNAKNTVYLQMNSLKPEDTAVYYCAARPGRNYYYWGQGTQVTVSS", "polyreactivity (PSR sort gate)": "high polyreactivity"}, {"sequence": "QVQLVESGGGLVQAGGSHRLSCAASGSTYTYNAMGWYRQAPGKERELVAAISSSGGTTYYADSVKGRFTISRDNAKNTVYLQMTSLKPEDTAVYYCAKRWLYTSAFRIMDYWGQGTQVTVSS", "polyreactivity (PSR sort gate)": "high polyreactivity"}, {"sequence": "QVQLVESGGGLVQAGGSLRLSCADSGRIFFKYAMGWYRQAPGKERELVASISRRGGSTTYADSVKGRFTISRDNAKNTVYLQMNSLKPEDTAVYYCNTVSWWGRNYQDEYYYWGQGTQVTVSS", "polyreactivity (PSR sort gate)": "high polyreactivity"}, {"sequence": "QVQLVESGGGLVQAGGSLRLSCAASGFIFQYYAMGWYRQAPGKERELVAAISFSGGSTYYADSVKGRFTISRANAKNTVYLPMNSLKPEDTAVYYCAAEVYSGGDYSGHDYYWGQGTQVTVSS", "polyreactivity (PSR sort gate)": "low polyreactivity"}, {"sequence": "QVQLVESGGGLVQAGGSLRLSCAASGGTIDNAMGWYRQAPGKERELVAAISKHGGRTYYADSVKGRFTISRDNAKNTVYLQMNSLKAEDTAVYYCAADAFRGFFWGQGTQVTVSS", "polyreactivity (PSR sort gate)": "high polyreactivity"}, {"sequence": "QDQLVESGGGLVQAGGSLRLSCAASGLTFQYNAMGWYRQAPRKERELVATISQSGGSTYYADSVKGRFTISRDNAKNTVYLQMNSLKREDTAVYYCAAYRAWTWRIRYDYWGQGTQVTVSS", "polyreactivity (PSR sort gate)": "low polyreactivity"}, {"sequence": "QVQLVESGGGLVQAGGSLRLSCAASGLTFKTYAMGWYRQAPGKERELVAAISRSGGSTSYADSVKGRFTISRDNAKNTVYLQMNSLKPEDTAVYYCAAKTYEPRKYEYWGQGTQVTVSS", "polyreactivity (PSR sort gate)": "high polyreactivity"}, {"sequence": "QVQLVESGGGLVQAGGSLRLSCAASGFTFTPYAMGWYRQAPGKERELVAAISWSDVRTYYADSVKGRFTISRDNAKNTVFLQMNSLKPEDTAVYYCAAEFYFYSWSEYDYWGQGTQVTVSS", "polyreactivity (PSR sort gate)": "high polyreactivity"}, {"sequence": "EEELVESGGGLVQAGGSSLRLSCAASGRTFSTNVMGWYRQAPGKERELVAAINRSGGSTYYADSVKGRFTISRDNAKNTVYLQMNSLKPEDTAVYYCAKRDGVGNHEFDYWGQGTQVTVSS", "polyreactivity (PSR sort gate)": "low polyreactivity"}, {"sequence": "QVQLVESGGGLVQAGGSLRLSCAASGSTLDSYTMGWYRQAPGKERELVATISTSGGSTYYADAVKGRFTISRDNAKNTVSIQMNSLKPEDTAVYYCKADAPFGPNRYNSWGQGTQVTVSS", "polyreactivity (PSR sort gate)": "low polyreactivity"}, {"sequence": "QVQLVESGGGLVQAGGSLRLSCAASGRILRPYAMGWYRQAPGKERELDAGITVRGGTTYYADSVKGRFTISRDNAKNTVYLQMNILKPEDTAVYYCAATDIHYGPSYIPYWYGYCGQGTQVTVSS", "polyreactivity (PSR sort gate)": "high polyreactivity"}, {"sequence": "KDQIVQSGAGLVQAGGSLRISCAPSGFIFTYNAMGWYIQAPGKEREIVATITWSGGSTYYADSVKGRFTISRDNAKNTVYLQMYSLNPEDTAVYYCAVDYSRHGYWSPVYVFNYWGQGTKVTVSS", "polyreactivity (PSR sort gate)": "low polyreactivity"}, {"sequence": "QVQLVESGGGLVQAGGSLRLSCAAYGSTFHYYSMGWYRQAPGKERELVAAISSSGVSTYYADSVKGRFTISRDYAKNTVYLQMNSLKPEDTAVYYCNRASVFHYRWYYYWGLGTQVTVSS", "polyreactivity (PSR sort gate)": "high polyreactivity"}, {"sequence": "QVQLVESGGGLVQAGGSLRLSCAASGSTFWTNAMGWYRQAPGKERELVAVISRGGSTNYADSVKGRFTISRDNAKNTVYLQMNSLKPEDTAVYYCAAASYLYGRYYYWGQGTQVTVSS", "polyreactivity (PSR sort gate)": "high polyreactivity"}, {"sequence": "QVQLVESGGALVQAGGSLRLSCGASGSTFHPYAMGWYRQAPGKERELVGAITWRVGSTYYADSVKGRFTISRDNAKNTVYLQMNSLKPEETAVYYCAVSYLSTLVRSRYDYWGQGTQVTVSS", "polyreactivity (PSR sort gate)": "low polyreactivity"}, {"sequence": "QVQLVESGGGLVQAGGSLRLSCAASGSIFAIYVMGWYRQAPGKERELVAAITWSGGSTYYADSVKGRFTISRDNAKNTVDLQMNSLKPEDTAVYYCAARVLRVRTVTTTWGQGTQVTLSS", "polyreactivity (PSR sort gate)": "high polyreactivity"}, {"sequence": "QVQLVESGGGLVQAGGSLRLSCAASGYTFSFYAMGWYRQAPGKERELVAAISSSDGTTYYADSEKGRFTISRDNAKNTVYLQMNSLKPEDTAVYYCNTRYVRQVVGTYTLKTRYYWGQGTQVTVSS", "polyreactivity (PSR sort gate)": "high polyreactivity"}, {"sequence": "QVQLVESGGGLVQAGGSLRLSCADSGRIFGPYAMGWYRQAPGKERELVAAISGGGRTDYADSVKGRFTISRDNAKNTVYLQMNSLKPEDTAVYYCNADYTYWNGWFATRDYWGQGTQVTVSS", "polyreactivity (PSR sort gate)": "low polyreactivity"}, {"sequence": "QVQHVESGGGLVQAGGSLRLSCAASGRIISYNAMGWYRQAPGKERELVAAISWGGGSTYYADSVKGRFTISRDNAKNTVYLQMNSLKPEDTAVYYCAKGWYRIKRNDYWGQGTQVTVSS", "polyreactivity (PSR sort gate)": "low polyreactivity"}, {"sequence": "QVQLVESGGGLVQAGGSLRLSCAASGGIFRYAMGWYRQAPGKEREFVAAITTRGGSTYYADSVKARFTISRDNAKNTVYLQMNSLKPEDTAVYYCAARRYSGRNKYDYWGQGTQLTVSS", "polyreactivity (PSR sort gate)": "high polyreactivity"}, {"sequence": "QVQLVESGGGLVQAGGSLRLSCAASGRISYRNAMGWYRQAPGKERELVATITNGGSTYYADSVKGRFTISRDNAKNTVYLQMNSLKPEDTAVYYCAKEVWNWGPYYYWGQGTQVTVSS", "polyreactivity (PSR sort gate)": "low polyreactivity"}, {"sequence": "QVQLEESCGGLVQAGGSLRLSCAAYGRIFGNYAMGWYRQATGKETELVAAITRGSTYYADSVKGRFTISRDNSKNTVYLQMNSLKPEDTAFYYCNARPRVPGVLYLYDYWGQGTQVTVSS", "polyreactivity (PSR sort gate)": "high polyreactivity"}, {"sequence": "QVQLVESGGGLVQAGGSLRLSCAASGITFWYYAMGWYRQAPGKERELVAAITGGDSTNYADSVKGRFTISRDNAKNTVYLQMNSLKPEDTAVYYCNAEGSYEGYDDYWGHGTQVTVSS", "polyreactivity (PSR sort gate)": "high polyreactivity"}, {"sequence": "QVQLVESGGGLVQAGGSLRLSCAASGRTFVIYAMGWYRQAPGKEREFVAAISRSGGSTYYADSVKGRFTISRDNAKNTVYLQMNSLKPEDTAVYYCNTRTPYWFKSDYWGQGTQVTVSS", "polyreactivity (PSR sort gate)": "low polyreactivity"}, {"sequence": "QVQLVESGAGLVQARASHRLSCAASGSTLYAYAIGCSRQEPGKEREMVAAISGTGGSTYYADSVKGRFTISRDNAKNTVYLQMNTLKPEDTADYYCAAYYNYFGQRYYYWGQGTQVTVSS", "polyreactivity (PSR sort gate)": "high polyreactivity"}]}]}
